Measured values as given in article PMC9930899, “New Insights into rice pyrimidine catabolic enzymes” (Frontiers in Plant Science, 2023).

Key:
Type in all cases: biochemical, Oryza sativa
[1] = substrate: O=C1C[C@@H](C(=O)O)NC(=O)N1; experiment: steady-state DHODH activity, Michaelis-Menten fit; settings: co-substrate decylubiquinone, 30°C
Text: (§1) steady-state DHODH activity, Michaelis-Menten fit on OsDHODH

[2] = substrate: CCCCCCCCCCC1=C(C)C(=O)C(OC)=C(OC)C1=O; experiment: steady-state DHODH activity, Michaelis-Menten fit; settings: co-substrate L-dihydroorotate, 30°C
Text: as §1

purified protein [3] = substrate: O=C1CCNC(=O)N1; experiment: purified protein; settings: 0.1 M potassium buffer, pH 8, 1 mg/mL BSA, 37°C
purified protein [4] = substrate: CC(CNC(N)=O)C(=O)O; experiment: purified protein; settings: 25°C
purified protein [5] = substrate: NC(=O)NCCC(=O)O; experiment: purified protein; settings: 25°C

B1: OsDHODH (Oryza sativa Japonica Group) (protein)
chain: DEAKFCGWLFKSTQLVNPLFALLDAEFAHRLAVTAASHGFVPREKRPDPSVLGLEIWGRKFTNPIGLAAGFDKNAEAVEGLLGMGFGFVEVGSVTPLPQEGNPKPRIFRLREHGAVINRCGFNSEGIVVVAKRLGAQHGKRKMEETSSSTSPTTSDVKQGGKAGPGILGVNLGKNKISEDATADYVQGVHTLSQYADYLVINVSSPNTPGLRKLQGRKQLKDLVKKVQAARDEMQWAEDGPPPLLVKIAPDLSKQDLEDIAAVALALRLDGLIISNTTISRPSPADTHPLAQEAGGLSGKPLFDLSTNVLREMYILTRGKIPLIGCGGVSSGEDAYKKIRSGATLVQLYTAFAYGGPALIPRIKAELAECLERDGFKSVQEAVGADFK
notes: N-terminally truncated, starts at residue 82 (DEAK); N-terminal His-tag, pET15b, E. coli; full length 469 residues
- Km [1]: 29.7 ± 3.5 µM
- Km [2]: 4.56 ± 0.67 µM

B2: OsDHP-T1 (Oryza sativa Japonica Group) (protein)
chain: EFCAAVGGGSGGCGVGGGGGGDGRRILIRGGTVVNAHRVEEADVYVEDGVIVAVRPNIPVGDDHVKVIDATGKYVMPGGIDPHTHLEMEFMGTVTIDDFFSGHAAALAGGTTMHIDFVIPVNGNLTAGLESYKQKAEKSAMDYGFHMAITKWNDDVSREMETMVKEHGINSFKFFMAYKGSLMVTDDLLLQGLQKCKSLGALAMVHAENGDAVAEGQQRMIDLGITGPEGHALSRPPVLEGEATARAIRLAKFVNTPLYVVHVMSIDAMDEIAKAKREGQRVIGEPVVSGLVLDDSWLWDPDFMIASKYVMSPPIREAGHNKALQVALSSGILQLVGTDHCTFNSTQKAFGSDDFRKIPNGVNGIEERMHIIWDSMVETGRISVSDYVRVTSTECAKIFNIYPRKGAILEGSDADIIILNPERSFVMGAHTHHSRSNTNVYEGRKGKGMVEVTISRGRVVWEDGILNVVPGSGRYVRTPPYSYLFDGIEKSDAAYRASLRAPVKRGKAAA
notes: N-terminal His-tag, pET19b, E. coli; full length 539 residues, 57,989 Da
- Km (purified protein [3]): 300 ± 40 µM
- kcat (purified protein [3]): 1.07 ± 0.04 s⁻¹
- kcat/Km (purified protein [3]): 3550 M⁻¹ s⁻¹

B3: Osß-UP (Oryza sativa Japonica Group) (protein)
chain: MDSSNGERPPQGEDAPAAAAGSIGGYESLHRLLQSNLSPELFKEASRLLLGLNCGRALEAISLPEATSALAKAHNFDVQAFRFDADKEYLRQPRVIRVGLIQNSIAIPTTSHFADQKKAIMEKVKPMIDAAGDAGVNILCLQEAWTMPFAFCTREKRWCEFAEPVDGESTQFLQQLAKKYNMVIVSPILERDVNHGEIVWNTAVVIGNHGNIIGIHRKNHIPRVGDFNESTYYMEGNTGHPVFETAYGKIGVNICYGRHHPLNWLAFGLNGAEIVFNPSATVGELSEPMWPIEARNAAIANSYFVGSINRVGTEVFPNPFTSGDGKPQHADFGHFYGSSHFSAPDASCTPSLSRYRDGLMISDMDLNLCRQIKDKWGFRMTARYDTYASLLSEYLKPDFKPQVIVDPLINKSA
notes: full length, 413 residues (45,713 Da), N-terminal His-tag, pET15b, E. coli
- Km (purified protein [4]): 160 ± 20 µM
- kcat (purified protein [4]): 1.36 ± 0.07 s⁻¹
- kcat/Km (purified protein [4]): 8500 M⁻¹ s⁻¹
- Km (purified protein [5]): 140 ± 10 µM
- kcat (purified protein [5]): 2.54 ± 0.07 s⁻¹
- kcat/Km (purified protein [5]): 18100 M⁻¹ s⁻¹
